B1: CLPTM1 (parent)
chain: LGCYAVYSLLYLEHKGWYSWVLSM
B2: CIB1 (parent)
chain: DLSRLVNCLTGEGEDTRLSASEMK

Variants of: B1
Assay: protein stability index of a GFP-peptide fusion (GPS, HEK-293T) (PSI 1-6); higher = more stable
Conditions: c terminus: a fixed tail appended
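Also: lentivirally expressed fusions sorted by FACS into six bins by GFP to DsRed ratio, PSI derived from sequencing read proportions per bin multiplied by bin number.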

Protein stability index, by site and new letter:
Y18: D 3.53; I 3.27; Q 2.56; F 2.61; N 3.45; R 3.76; G 2.21; M 2.61; V 2.95; P 3.5; L 2.48; C 1.27; K 2.08; W 3.03; H 2.44
W20: I 3.33; E 3.54; N 3.58; T 2.45; V 3.55; S 2.21; L 2.91; M 3.21; R 2.84; D 2.14; G 2.21; H 1.87; P 3.37; Q 2.07; K 2.65; C 3.98; F 1.72
W17: A 3.3; L 2.96; T 3.28; E 2.81; G 2.14; P 2.44; I 2.71; N 4.13; K 3.85; C 2.36; R 2.16; Y 2.38; D 2.76; F 1.55
G16: R 1.42; V 2.84; P 2.75; T 2.75; F 2; E 2.88; H 3.98; M 2.67; N 2.7
V21: T 2.31; M 2.45; F 2.12; R 1.99; N 3.02; C 4.16; L 2.77; S 3.6; D 1.56; A 2.45; W 3.42; G 2.62; H 2.45; Y 2.63; K 2.12; E 3.46; P 3.65; I 1.96
S23: H 2.63; T 1.72; G 2.17; V 1.82; Y 2.49; F 2.11; C 3.78; R 2.26; M 3.15; P 4.18; N 2.27; I 3.17; W 3.03; L 2.41; Q 3.11
L22: R 2.45; M 2.11; E 3.17; K 2.01; C 4.24; T 1.98; P 3.42; F 3.46; Y 3.5; S 3.49; Q 2.18; G 1.72; I 3.34; W 2.58; A 3.33
S19: I 3.66; Y 2.62; R 1.76; P 2.93; F 2.47; C 3.08; V 1.92; E 2.27; W 2.66; Q 3.63; N 3.88; T 3.99; K 3.27; G 2.71; A 4.22
M24: K 3.6; G 4.14; P 3.83; Q 3.62; H 3.76; A 2.39; R 2.3; E 5.08; V 3.57; T 2.61; N 2.39; C 4.42; F 4.41; S 2.46; W 3.77; Y 2.41; L 2.6; D 2.05; I 2.67

Variants of: B2
Assay: as above
Conditions: c terminus: a fixed tail appended

Protein stability index, by site and new letter:
D1: C 2.65; N 2.89; A 2.84; T 2.06; K 4.18; P 4.33; M 2.49; G 3.69; H 3.25; R 3.68; Y 2.43; V 1.95; Q 3.56; F 2.77; S 2.8; L 2.04; I 2.3
L2: C 3.87; G 5.22; D 4.32; K 4.56; N 4.22; I 2.82; H 5.29; P 5.35; Q 4.6; M 5.13; F 3.85; E 5.67; A 4.39

From the supplement of paper PMC10567573
